By IC50 is commonly meant the concentration that inhibits the measured activity by half.

These results are taken from patent US20220025032A1 (Novartis, published 2022).

Test [1] deals with T1, Human BTC (human, UniProt P35070 32-111).
T1 construct: Soluble human BTC of the Biacore, ELISA, MSD and cell assays; also called human betacellulin; soluble human BTC
T1 sequence: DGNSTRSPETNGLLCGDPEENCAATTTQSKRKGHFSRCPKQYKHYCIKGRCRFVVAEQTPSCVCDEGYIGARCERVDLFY
In words: cell-based inhibition of BTC binding to ErbB1.

Test [2] addresses T1, Human BTC. Put plainly: cell-based inhibition of BTC binding to ErbB4.
The target of test [3] is T1, Human BTC. Put plainly: inhibition of BTC binding to ErbB4; y axis MSD units, x axis Antibody concentration (pM); blocked partner ErbB4.
Test [4] concerns the target T2, Human BTC-avitag-biotin (human, UniProt P35070 32-111, biotin on the avitag).
T2 construct: also called biotin-BTC; soluble human BTC-avitag-biotin
T2 sequence: T1 sequence
In words: flow cytometry, BTC-ErbB1 Cell Binding Inhibition: antibody pre-incubated with 15 nM human BTC-avitag-biotin, HKB11 cells over-expressing human ErbB1; y axis Percent Inhibition. As to the method: (§1) HKB11 over-expressing either ErbB1 or ErbB4 cells were plated 1×10⁵ cells/well. Cells were washed once with FACS buffer by spun down at 1200 rpm for 5 minutes and supernatant removed. Next, the Fab sample dilutions and BTC were prepared in FACS buffer. Human BTC-avitag-biotin was diluted to a fixed concentration of 15 nM. The test Fab samples were prepared at a starting concentration of 40 nM and titrated for 9 points at a serial dilution of 1:2. Both biotin-BTC and the test Fab samples are incubated for 30 minutes at room temperature. The pre-incubated samples were then added to the cell plate at 100 μl per well in duplicate and incubated for 1 hour on ice. The plate was then washed once in FACS buffer and spun down at 1200 rpm for 5 minutes and supernatant removed. […]
(§2) Measurements were performed on Attune Flow Cytometry machine. Data were analysed using the Flow Jo software. The live cell populations analysed were gated in forward and side scattering (FSC-A/SSC-A dot plot). The interval gate was established on the control histogram, which was obtained with sample incubated in streptavidin-Alexa Fluor488 only, and subsequently, determined percent of positive binding events of cells carrying membrane-bound receptor ErbB1 or ErbB4 and biotin-BTC. The median of fluorescence intensity (MFI) value was also derived for the live cell population. […]
In general terms: A flow cytometer gives signals particle by particle.

Test [5] deals with T2, Human BTC-avitag-biotin. Put plainly: flow cytometry, BTC-ErbB4 Cell Binding Inhibition: antibody pre-incubated with 15 nM human BTC-avitag-biotin, HKB11 cells over-expressing human ErbB4; y axis Percent Inhibition. As to the method:
as §1, §2

B1: NVS1 (Fab, V domains shown)
VH: QVQLVQSGAEVKKPGSSVKVSCKASGGTFSSYAISWVRQAPGQGLEWMGGIVPWMGEAVYAQKFQGRVTITADESTSTAYMELSSLRSEDTAVYYCARSSSTYGIHAFDYWGQGTLVTVSS
VL: DIQMTQSPSSLSASVGDRVTITCRASQSISNFLNWYQQKPGKAPKLLIYAASNLQSGVPSRFSGSGSGTDFTLTISSLQPEDFATYYCQQYDDFPMTFGQGTKVEIKR
notes: also called Fab NVS1; NVS1 Fab
On to B1, for which, in the test with Human BTC [1], the “Cell-based binding inhibition BTC/ErbB1” value is above 90%. Further, in the test with Human BTC [2], the “Cell-based binding inhibition BTC/ErbB4” value was above 90%. Further, the IC50 in the test with Human BTC [3] worked out at 0.591 nM; in the test with Human BTC-avitag-biotin [4], 2.5 nM; in the test with Human BTC-avitag-biotin [5], 7.4 nM.
